According to patent US20090180952A1:

Assays:
[1] = target: recombinant soluble urokinase plasminogen activator receptor (suPAR, aa 1-279) (UniProt Q03405); assay: direct binding assay (format and antigen form not stated)
[2] = target: recombinant soluble urokinase plasminogen activator receptor (suPAR, aa 1-279) (UniProt Q03405); assay: ELISA on suPAR, bound Biotin-ATN-658 detected with HRP-streptavidin

Kd [1]: 1 nM
EC50 (read off the curve) [2]: 200 pM
Substance: mAb ATN-658 (antibody)
